Test results from publication PMC10786891, “Massively parallel profiling of RNA-targeting CRISPR-Cas13d”.

Target: T1, EsCas13d, nuclease-dead (Eubacterium siraeum, UniProt B0MS50, R295A;H300A;R849A;H854A)
T1 sequence: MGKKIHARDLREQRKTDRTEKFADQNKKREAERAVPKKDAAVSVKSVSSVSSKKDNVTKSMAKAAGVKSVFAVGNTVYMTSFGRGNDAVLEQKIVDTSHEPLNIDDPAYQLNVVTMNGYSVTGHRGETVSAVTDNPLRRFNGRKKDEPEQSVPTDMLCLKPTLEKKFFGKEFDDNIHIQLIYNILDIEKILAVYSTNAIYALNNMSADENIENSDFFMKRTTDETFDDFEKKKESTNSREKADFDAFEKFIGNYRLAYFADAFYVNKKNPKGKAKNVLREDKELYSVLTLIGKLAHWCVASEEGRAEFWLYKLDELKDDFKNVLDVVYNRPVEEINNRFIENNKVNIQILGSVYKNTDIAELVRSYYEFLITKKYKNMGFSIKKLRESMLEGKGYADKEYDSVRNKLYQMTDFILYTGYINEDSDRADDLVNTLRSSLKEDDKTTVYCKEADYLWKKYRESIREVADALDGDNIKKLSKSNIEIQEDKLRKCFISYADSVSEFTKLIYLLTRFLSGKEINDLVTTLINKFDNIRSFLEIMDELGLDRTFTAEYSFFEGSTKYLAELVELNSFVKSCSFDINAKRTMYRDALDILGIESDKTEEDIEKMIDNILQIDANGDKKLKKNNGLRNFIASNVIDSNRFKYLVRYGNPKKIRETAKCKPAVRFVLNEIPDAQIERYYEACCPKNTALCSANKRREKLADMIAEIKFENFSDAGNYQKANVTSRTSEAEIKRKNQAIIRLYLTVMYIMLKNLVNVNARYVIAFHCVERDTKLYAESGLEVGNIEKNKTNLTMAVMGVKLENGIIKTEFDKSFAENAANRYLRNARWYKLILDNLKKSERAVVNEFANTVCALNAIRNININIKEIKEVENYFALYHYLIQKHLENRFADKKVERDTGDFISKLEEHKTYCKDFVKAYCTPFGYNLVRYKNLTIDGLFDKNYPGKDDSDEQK
Assay: crRNA (strand 1, pre-loaded); Mg2+; 40 mM Tris-HCl pH 7.5, 150 mM NaCl, 6 mM MgCl2, 1 mM DTT, 0.1% Tween-20, 0.2 mg/ml BSA; 25 C; 10 min per concentration, then washed
Conditions: tags: His6-TwinStrep-SUMO cleaved; N-terminal SNAP kept (SNAP-Surface 488); label: 3' end held by stalled T7 RNA polymerase

Binder	Kd [nM]
target 2 MT 5'PFS GUG 3'PFS UUU (mixed) RNA 1: CACCCGUGCAAAAUUGCAGGGGUCUAAAACCUUCUCCAAAUUGUUUCAUCCU RNA 2: GGGAAUGGAUCCACAUCUACGAAUUCGUGAGGAUGAAACAAUUUGGAGAAGUUUAGAUCGGAAGAGCACACGU	61 ± 13
target 2 MT 5'PFS UGC 3'PFS AUA (mixed) RNA 1: CACCCGUGCAAAAUUGCAGGGGUCUAAAACCUUCUCCAAAUUGUUUCAUCCU RNA 2: GGGAAUGGAUCCACAUCUACGAAUUCUGCAGGAUGAAACAAUUUGGAGAAGAUAAGAUCGGAAGAGCACACGU	28 ± 9
target 2 MT 5'PFS GGU 3'PFS CUU (mixed) RNA 1: CACCCGUGCAAAAUUGCAGGGGUCUAAAACCUUCUCCAAAUUGUUUCAUCCU RNA 2: GGGAAUGGAUCCACAUCUACGAAUUCGGUAGGAUGAAACAAUUUGGAGAAGCUUAGAUCGGAAGAGCACACGU	16.7 ± 1.3
target 2 MT 5'PFS CAG 3'PFS UAC (mixed) RNA 1: CACCCGUGCAAAAUUGCAGGGGUCUAAAACCUUCUCCAAAUUGUUUCAUCCU RNA 2: GGGAAUGGAUCCACAUCUACGAAUUCCAGAGGAUGAAACAAUUUGGAGAAGUACAGAUCGGAAGAGCACACGU	5.3 ± 1
target 2 MT 5'PFS GAA 3'PFS UCU (mixed) RNA 1: CACCCGUGCAAAAUUGCAGGGGUCUAAAACCUUCUCCAAAUUGUUUCAUCCU RNA 2: GGGAAUGGAUCCACAUCUACGAAUUCGAAAGGAUGAAACAAUUUGGAGAAGUCUAGAUCGGAAGAGCACACGU	30 ± 9
target 2 MT 5'PFS GUA 3'PFS CGG (mixed) RNA 1: CACCCGUGCAAAAUUGCAGGGGUCUAAAACCUUCUCCAAAUUGUUUCAUCCU RNA 2: GGGAAUGGAUCCACAUCUACGAAUUCGUAAGGAUGAAACAAUUUGGAGAAGCGGAGAUCGGAAGAGCACACGU	6.9 ± 0.4
target 2 MT 5'PFS GCU 3'PFS UGC (mixed) RNA 1: CACCCGUGCAAAAUUGCAGGGGUCUAAAACCUUCUCCAAAUUGUUUCAUCCU RNA 2: GGGAAUGGAUCCACAUCUACGAAUUCGCUAGGAUGAAACAAUUUGGAGAAGUGCAGAUCGGAAGAGCACACGU	12.9 ± 2.1
target 2 MT 5'PFS GUG 3'PFS AUU (mixed) RNA 1: CACCCGUGCAAAAUUGCAGGGGUCUAAAACCUUCUCCAAAUUGUUUCAUCCU RNA 2: GGGAAUGGAUCCACAUCUACGAAUUCGUGAGGAUGAAACAAUUUGGAGAAGAUUAGAUCGGAAGAGCACACGU	11.3 ± 0.9
target 2 MT 5'PFS UGC 3'PFS AUG (mixed) RNA 1: CACCCGUGCAAAAUUGCAGGGGUCUAAAACCUUCUCCAAAUUGUUUCAUCCU RNA 2: GGGAAUGGAUCCACAUCUACGAAUUCUGCAGGAUGAAACAAUUUGGAGAAGAUGAGAUCGGAAGAGCACACGU	28 ± 6
target 2 MT 5'PFS GUG 3'PFS AUC (mixed) RNA 1: CACCCGUGCAAAAUUGCAGGGGUCUAAAACCUUCUCCAAAUUGUUUCAUCCU RNA 2: GGGAAUGGAUCCACAUCUACGAAUUCGUGAGGAUGAAACAAUUUGGAGAAGAUCAGAUCGGAAGAGCACACGU	10.8 ± 0.8
target 2 MT 5'PFS GAA 3'PFS UCG (mixed) RNA 1: CACCCGUGCAAAAUUGCAGGGGUCUAAAACCUUCUCCAAAUUGUUUCAUCCU RNA 2: GGGAAUGGAUCCACAUCUACGAAUUCGAAAGGAUGAAACAAUUUGGAGAAGUCGAGAUCGGAAGAGCACACGU	13.1 ± 1.6
target 2 MT 5'PFS UUG 3'PFS UGU (mixed) RNA 1: CACCCGUGCAAAAUUGCAGGGGUCUAAAACCUUCUCCAAAUUGUUUCAUCCU RNA 2: GGGAAUGGAUCCACAUCUACGAAUUCUUGAGGAUGAAACAAUUUGGAGAAGUGUAGAUCGGAAGAGCACACGU	16.8 ± 1.9
target 2 MT 5'PFS GCU 3'PFS UGU (mixed) RNA 1: CACCCGUGCAAAAUUGCAGGGGUCUAAAACCUUCUCCAAAUUGUUUCAUCCU RNA 2: GGGAAUGGAUCCACAUCUACGAAUUCGCUAGGAUGAAACAAUUUGGAGAAGUGUAGAUCGGAAGAGCACACGU	17.7 ± 2.7
target 2 MT 5'PFS GAU 3'PFS UAG (mixed) RNA 1: CACCCGUGCAAAAUUGCAGGGGUCUAAAACCUUCUCCAAAUUGUUUCAUCCU RNA 2: GGGAAUGGAUCCACAUCUACGAAUUCGAUAGGAUGAAACAAUUUGGAGAAGUAGAGAUCGGAAGAGCACACGU	13.4 ± 2.7
target 2 MT 5'PFS UGC 3'PFS AUC (mixed) RNA 1: CACCCGUGCAAAAUUGCAGGGGUCUAAAACCUUCUCCAAAUUGUUUCAUCCU RNA 2: GGGAAUGGAUCCACAUCUACGAAUUCUGCAGGAUGAAACAAUUUGGAGAAGAUCAGAUCGGAAGAGCACACGU	33 ± 7
target 2 MT 5'PFS GUG 3'PFS AUG (mixed) RNA 1: CACCCGUGCAAAAUUGCAGGGGUCUAAAACCUUCUCCAAAUUGUUUCAUCCU RNA 2: GGGAAUGGAUCCACAUCUACGAAUUCGUGAGGAUGAAACAAUUUGGAGAAGAUGAGAUCGGAAGAGCACACGU	13.8 ± 1.3
target 2 MT 5'PFS AUG 3'PFS AUG (mixed) RNA 1: CACCCGUGCAAAAUUGCAGGGGUCUAAAACCUUCUCCAAAUUGUUUCAUCCU RNA 2: GGGAAUGGAUCCACAUCUACGAAUUCAUGAGGAUGAAACAAUUUGGAGAAGAUGAGAUCGGAAGAGCACACGU	9.9 ± 1.4
target 2 MT 5'PFS CCU 3'PFS CCC (mixed) RNA 1: CACCCGUGCAAAAUUGCAGGGGUCUAAAACCUUCUCCAAAUUGUUUCAUCCU RNA 2: GGGAAUGGAUCCACAUCUACGAAUUCCCUAGGAUGAAACAAUUUGGAGAAGCCCAGAUCGGAAGAGCACACGU	5.3 ± 2
target 2 MT 5'PFS UUG 3'PFS UGC (mixed) RNA 1: CACCCGUGCAAAAUUGCAGGGGUCUAAAACCUUCUCCAAAUUGUUUCAUCCU RNA 2: GGGAAUGGAUCCACAUCUACGAAUUCUUGAGGAUGAAACAAUUUGGAGAAGUGCAGAUCGGAAGAGCACACGU	14.1 ± 2.2
target 2 MT 5'PFS GUG 3'PFS UUC (mixed) RNA 1: CACCCGUGCAAAAUUGCAGGGGUCUAAAACCUUCUCCAAAUUGUUUCAUCCU RNA 2: GGGAAUGGAUCCACAUCUACGAAUUCGUGAGGAUGAAACAAUUUGGAGAAGUUCAGAUCGGAAGAGCACACGU	27 ± 4
target 2 MT 5'PFS GAA 3'PFS UCC (mixed) RNA 1: CACCCGUGCAAAAUUGCAGGGGUCUAAAACCUUCUCCAAAUUGUUUCAUCCU RNA 2: GGGAAUGGAUCCACAUCUACGAAUUCGAAAGGAUGAAACAAUUUGGAGAAGUCCAGAUCGGAAGAGCACACGU	32 ± 6
target 2 MT 5'PFS GUG 3'PFS UUA (mixed) RNA 1: CACCCGUGCAAAAUUGCAGGGGUCUAAAACCUUCUCCAAAUUGUUUCAUCCU RNA 2: GGGAAUGGAUCCACAUCUACGAAUUCGUGAGGAUGAAACAAUUUGGAGAAGUUAAGAUCGGAAGAGCACACGU	22.5 ± 3.2
target 2 MT 5'PFS GUG 3'PFS AUA (mixed) RNA 1: CACCCGUGCAAAAUUGCAGGGGUCUAAAACCUUCUCCAAAUUGUUUCAUCCU RNA 2: GGGAAUGGAUCCACAUCUACGAAUUCGUGAGGAUGAAACAAUUUGGAGAAGAUAAGAUCGGAAGAGCACACGU	11.3 ± 1.5
target 2 MT 5'PFS GAU 3'PFS UAC (mixed) RNA 1: CACCCGUGCAAAAUUGCAGGGGUCUAAAACCUUCUCCAAAUUGUUUCAUCCU RNA 2: GGGAAUGGAUCCACAUCUACGAAUUCGAUAGGAUGAAACAAUUUGGAGAAGUACAGAUCGGAAGAGCACACGU	16 ± 3.4
target 2 MT 5'PFS GAG 3'PFS UUC (mixed) RNA 1: CACCCGUGCAAAAUUGCAGGGGUCUAAAACCUUCUCCAAAUUGUUUCAUCCU RNA 2: GGGAAUGGAUCCACAUCUACGAAUUCGAGAGGAUGAAACAAUUUGGAGAAGUUCAGAUCGGAAGAGCACACGU	15.7 ± 2.5
target 1 insA 3' of 21,insC 3' of 8 (mixed) RNA 1: CACCCGUGCAAAAAUGCAGGGGUCUAAAACUGAGCGGAUAACCUCUCUAUGG RNA 2: GGGAAUGGAUCCACAUCUACGAAUUCGUACCAAUAGAGAGGUUAUCCCGCUCACCGAGAUCGGAAGAGCACACGU	21.5 ± 1.1
target 1 complement block 5-10 (mixed) RNA 1: CACCCGUGCAAAAAUGCAGGGGUCUAAAACUGAGCGGAUAACCUCUCUAUGG RNA 2: GGGAAUGGAUCCACAUCUACGAAUUCGUACCAUAGAGAGGUAUAGGCCUCACCGAGAUCGGAAGAGCACACGU	14.5 ± 0.7
target 1 insA 3' of 13,insG 3' of 7 (mixed) RNA 1: CACCCGUGCAAAAAUGCAGGGGUCUAAAACUGAGCGGAUAACCUCUCUAUGG RNA 2: GGGAAUGGAUCCACAUCUACGAAUUCGUACCAUAGAGAGAGUUAUCGCGCUCACCGAGAUCGGAAGAGCACACGU	4.48 ± 0.22
